No end group written: not given here.
B1: K100: (KKKKKKKKKK)n=10 (SEQ ID NO: 2), Mw = 16,000 Da, high molecular weight polylysine (peptide)
chain: KKKKKKKKKKKKKKKKKKKKKKKKKKKKKKKKKKKKKKKKKKKKKKKKKKKKKKKKKKKKKKKKKKKKKKKKKKKKKKKKKKKKKKKKKKKKKKKKKKKK
modifications: ten repeats of SEQ ID NO:2 motif

Legend:
pDNA (pGL3) = test: Agarose gel electrophoresis of polycation-pDNA nanoparticles; type: physicochemical; details: for immobilization of pDNA in agarose gel: N/P ratio of 0.5
Procedure: Nanoparticle Formation. GA-pDNA nanoparticles, K100-pDNA nanoparticles, and K9-pDNA nanoparticles were prepared by adding 15 µL of the GA, K100, or K9 solutions at polymer nitrogen to pDNA phosphate ([…]) of pDNA (TAE Buffer (1x) was used as a solution for DNA storage), followed by repeated pipetting for 20-25 seconds. At that point, 15 µL of CaCl2 (0 or 38 mmol/L) was added to determine the effect of calcium. After formulating, samples were stored at 4° C. for ~20 minutes. PEI-pDNA nanoparticles were prepared by adding 15 µL of PEI solution (N/P ratio of 10) to 10 µL (0.1 µg/µL) of pDNA followed by pipetting for 20-25 seconds. After preparing PEI-pDNA nanoparticles, they were stored at 4° C. for ~20 minutes. All nanoparticles in this study were prepared immediately before each experiment.
Agarose Gel Electrophoresis. GA-pDNA nanoparticles, K100-pDNA nanoparticles, and K9-pDNA nanoparticles were prepared as defined above and subsequently, 4 µL of Tris-acetate-EDTA (TAE) buffer was added. Then, 4 µL of SYBR Green 1 was mixed with the nanoparticles. Afterward, the mixture was stored at 4° C. for 20-25 minutes. Then, 7 µL of 6X DNA loading dye (Takara Bio Inc., Japan) was added. A one kb DNA ladder (Promega, Madison, WI) was used. The mixture solutions were loaded onto a 1% agarose gel, and electrophoresed for 30 minutes at 110 V.

A549 cells = test: MTS cytotoxicity assay in A549 cells; type: cell-based, human
Procedure: (§1) Cytotoxicity Assay. Cytotoxicity of GA, K100, and K9, PEI, and CaCl2 was determined using a Cell Titer 96® AQueous Non-Radioactive Cell Proliferation Assay (MTS) obtained from Promega (Madison, Wisconsin). A549 and HeLa cells were cultured in a 96-well plate as described previously. Cells were treated with the samples for ~24 hours. Then, the media were replaced with a mixture of 100 µL of fresh serum medium and 20 µL of MTS. The plate was incubated for 3-4 hours in the incubator. To determine cell viability, the absorbance of each well was measured by a microplate reader (SpectraMax; Molecular Devices Crope, CA) at 490 nm and normalized to untreated control cells.

HeLa cells = test: MTS cytotoxicity assay in HeLa cells; type: cell-based, human; details: ~24 hours treatment
Procedure: as §1

Molecule | immobilization of pDNA in agarose gel (pDNA (pGL3)) | cytotoxicity (A549 cells; up to 1 mg/mL, cell line not stated at the place (A549 and HeLa tested)) | complexation of pDNA in agarose gel (pDNA (pGL3); N/P ratio of 1) | cytotoxicity (MTS) (A549 cells; A549 cells, ~24 hours treatment) | cytotoxicity (MTS) (HeLa cells)
Glatiramer Acetate [GA] | able to immobilize pDNA completely | negligible cytotoxicity |  |  | 
K9: KKKKKKKKK (SEQ ID NO: 1), C-terminal amide, Mw = 1170.65 Da (KKKKKKKKK-NH2) | did not |  | did not completely complex pDNA |  | 
B1 | able to immobilize pDNA completely |  |  | highly cytotoxic at low concentrations | highly cytotoxic at low concentrations
